# Assay results reported in article PMC10160106, “Symport and antiport mechanisms of human glutamate transporters” (Nature Communications, 2023).
# Target: the molecule itself
# Experiment: cryo-EM structure; EAAT3-X in 0.01% GDN, 20 mM HEPES-Tris pH 7.4, in 200 mM NaCl and 20 mM L-glutamate, 300 mM KCl, 150 mM NMDG chloride or 300 mM NaCl; maps refined with C3 symmetry, then symmetry expansion and local classification of protomers
protein,measurement,value
"MinCys EAAT3 K269C/W441C crosslinked using Hg2+ (EAAT3-X) (natural protein, human, UniProt P43005 1-524, looked up, Hg2+ crosslink between C269 and C441, Homotrimer; also called crosslinked EAAT3-X; MiniCys EAAT3 K269C/W441C; source: HEK 293F, transfected, purified (Strep-Tactin, SEC in GDN), crosslinked with HgCl2; not shown: Strep-II, N-terminal, cleaved; GFP, N-terminal, cleaved) MGKPARKGAEWKRFLKNNWVLLSTVAAVVLGITTGVLVREHSNLSTLEKFYFAFPGEILMRMLKLIILPLIISSMITGVAALDSNVSGKIGLRAVVYYFATTLIAVILGIVLVVSIKPGVTQKVGEIARTGSTPEVSTVDAMLDLIRNMFPENLVQAAFQQYKTKREEVKPPSDPEMTMTEESFTAVMTTAISKTKTKEYKIVGMYSDGINVLGLIVFALVFGLVIGKMGEKGQILVDFFNALSDATMKIVQIIMWYMPLGILFLIAGCIIEVEDWEIFRKLGLYMATVLTGLAIHSIVILPLIYFIVVRKNPFRFAMGMAQALLTALMISSSSATLPVTFRCAEENNQVDKRITRFVLPVGATINMDGTALYEAVAAVFIAQLNDLDLGIGQIITISITATSASIGAAGVPQAGLVTMVIVLSAVGLPAEDVTLIIAVDCLLDRFRTMVNVLGDAFGTGIVEKLSKKELEQMDVSSEVNIVNPFALESTILDNEDSDTKKSYVNGGFAVDKSDTISFTQTSQF",stoichiometry N,3
